Patent US11994512B2, “Single-cell genomic methods to generate ex vivo cell systems that recapitulate in vivo biology with improved fidelity” (Massachusetts Institute of Technology, priority 2018, dated 2024)

B1: Q80XU3 (protein, UniProt Q80XU3 1-234, looked up)
chain: MSRPVRNRKVVDYSQFQESDDADEDYGRDSGPPAKKIRSSPREAKNKRRSGKNSQEDSEDSEEKDVKTKKDDSHSAEDSEDEKDDHKNVRQQRQAASKAASKQREMLLEDVGSEEEPEEDDEAPFQEKDSGSDEDFLMEDDDDSDYGSSKKKNKKMVKKSKPERKEKKMPKPRLKATVTPSPVKGKAKVGRPTASKKSKEKTPSPKEEDEEAESPPEKKSGDEGSEDEASSGED
modifications: full-length
B2: Q8BK48 (protein, UniProt Q8BK48 1-559, looked up)
chain: MPLYKLLGWLNAVACGVLLLVLHVQGQDSASPIRNTHTGQVRGSLVHVKDTDIAVHTFLGIPFAKPPVGPLRFAPPEAPEPWSGVRDGTSHPNMCLQNDNLMGSEDLKMMNLILPPISMSEDCLYLNIYVPAHAHEGSNLPVMVWIHGGALTVGMASMYDGSMLAATEDVVVVAIQYRLGVLGFFSTGDQHAKGNWGYLDQVAALRWVQQNIVHFGGNPDRVTIFGESAGGTSVSSHVVSPMSQGLFHGAIMESGVAVLPDLISSSSEMVHRIVANLSGCAAVNSETLMCCLRGKNEAEMLAINKVFKIIPGVVDGEFLPKHPQELMASKDFHPVPSIIGINNDEYGWILPTIMDPAQKIEEITRKTLPAVLKSTALKMMLPPECGDLLMEEYMGDTEDPETLQAQFREMKGDFMFVIPALQVAHFQRSHAPVYFYEFQHRPSFFKDFRPPYVKADHGDEIFLVFGYQFGNIKLPYTEEEEQLSRRIMKYWANFARHGNPNSEGLPYWPVMDHDEQYLQLDIQPSVGRALKARRLQFWTKTLPQKIQELKGSQERHKEL
modifications: full-length
B3: Q80Z37 (protein, UniProt Q80Z37 1-1033, looked up)
chain: MGSQPPPPGSPLSREEGEAPPLVPAEEGRRRSRRVRLRGSCRHRPSLLSRRELASNGPAVPATASSEIMASAAKEFKMDNFSPKAGTSKLQQTVPADASPDSKCPICLDRFDNVSYLDRCLHKFCFRCVQEWSKNKAECPLCKQPFDSIFHSVRAEDDFKEYVLRPSYNGSFTNPEVRRFRYRTTMTRERSASLYSPSSTVSRRTTTPPDSGVLFEGLGISTRPRDVDIPQFMRQMALRGPTTTDERSLRKIQEQDIINFRRTLYRAGVRVRSIEDGGRYRDISAEFFRRNPACLHRLVPWLKRELTVLFGAHGSLVNIVQHIIMSNVTRYDLESQAFVSDLRPFLLNRTEHFIHEFISFARSPFNMAAFDQHANYDCPPSSEEGSRSDSSVITISPDEAETQELDMNASTVRQAPWDDETPGPSYSSSEQVHVGVSSLLNSSDSSDEELVSGGTTSQIQGVQTNDDVNNDSDSSSDNCVIVGFVKPLAERTPELVELSSDSEELGPYEKVETVKTQEQEQSYSSGDSDVSRASSPRSVLGKDEQMSKSHCDSDTRISSKKEEKRSTSLPAPRDSSSTRGDRVCSPYNHRHRKGGRSRSSDSRSQSRSGHDPRNHRKHGKKRLRNKRSRSRESSSRPRARKDKKRSRTRDSSWSRRSQTLSLSSGSTSRSRSRSSDHGKRRSRSRNRDRYYLRNNYGSKYKWEYTYYSRNKDRDGYESSYRRRTLSRAHYSRQSSSPEFRIQSFSERTNARKKNHSERKYYYYERRRSRSVSSNRSRTTSAGPDRVRNEKPGGKRKYKTRHLEGTSEEAQPAREFTSKGKDSHYQKSKLDGSYKNESDSFSDSRSSDRETKHKRRRRRTRSLSVEIVYEGKATDTSKHHKKKKKKHKKKHKKHHGDNTSRSPVVITIDSDSDGESEVKAGIECSNGSLPQPIQDGAFETKDVVTIEDELGVLDKDCDVTALADDLSTSQTVENCDSPAVPVEQTLDVREESTFASDLESQSSNVSIQAEPSRPVPSPRTSLSSVSPGRDCDVS
modifications: full-length
B4: Q7TQD2 (protein, UniProt Q7TQD2 1-218, looked up)
chain: MADSKAKPAKAANKTPPKSPGDPARAAKRLSLESEGANEGATAAPELSALEEAFRRFAVHGDTRATGKEMHGKNWSKLCKDCHVIDGKNVTVTDVDIVFSKIKGKSCRTITFEQFQEALEELAKKRFKDKSSEEAVREVHRLIEGRAPVISGVTKAVSSPTVSRLTDTSKFTGSHKERFDQSGKGKGKAGRVDLVDESGYVPGYKHAGTYDQKVQGGK
modifications: full-length
B5: Q8BM96 (protein, UniProt Q8BM96 1-785, looked up)
chain: MRSCRSCNVRVLVAIVCGLLTGIVLGLGIWRMVIRINRGIFVPVPSIPVQFCRNGGTWQNGRCICTEEWKGLRCTIANFCENSTDGEFTFGSIPVGRYGPSLQTCEPGTLNAGSPKATRLCNVSEFGNIELQNVTKGSCNINLQTLEIQINNQTASAENISREAQVLTADASKLTAQNITSATTVVGQIFGKANNESQAKKTAIATVSQILDASEDVFQKAAEMDNSKSFSNLIKQMENYSYSQGDQTVVEPNIAIQSVTRDDNSGPSVLFSVQKGSSNSLVSGRILINKTANGLNPDGQTELQILLNTGENRKSCGFMVYQNHKLFQSKTFTATSDFSQKIISSKINESEQQRQNKVSVEMVFNPTYDKRELRLHSYACVYWNFLINDWDTQGCQKTGNTTEFLRCNCSHTTNFAVLMSFKKDYKYPKSLDILSNIGCALSIAGLALTILFQILTRKIRKTSVTWVLVSLCSSMLIFNLLFVFGIENSNKNLKTSDSDINVKPENNKIPESDTIETPNPSCTAIAALLHYFLLVTFTWNGLSATQLYFLLIRTMKPLPRHFIIFISLVGWGVPAIIVGVTIGSIYALSGNKRYWELDYRQEEICWLAVPKDNDYARSPLLWSFIIPVTIILITNITIFVIITVKVLWKNNQNLTSTKKVSSLKKVFSTLSIAVVFGVTWILAYAMLISNDDIRIVFSYIFCLFNTTQGLQIFILYTVRTKVFQSEASKILKSLSSSFDRTKPMPSITPLKLRVRMYNMLRSLPSLNERFRLLEPSGMTEETSLS
modifications: full-length
B6: Q80V42 (protein, UniProt Q80V42 1-443, looked up)
chain: MDRARLWLGLLLPVVAALDFRYHHQEGMEAFLKSVAQNYSSITHLHSIGKSVRGRNLWVLVVGQTPKEHRVGIPEFKYVANMHGDETVGRELLLHLIDYLVSSYRKDPEITHLIDSTRIHIMPSMNPDGFEAVQKPDCYYSNGRENYNNYDLNRNFPDAFENNNVTKQPETLAIMEWLKTETFVLSANLHGGALVASYPFDNGVQATGTLLSRSLTPDDDVFQHLAYTYASRNPNMTKGDQCKNKRNFPNGIINGYSWYPLQGGMQDYNYIWAQCFEITLELSCCKYPREEKLPLFWNDNKASLIEYIKQVHLGVKGQVFDQSGAPLPNVIVEVQDRKHICPFRTNKLGEYYLLLLPGSYVINVTVPGHDSYLTKLTIPGKSQPFSALKKDFHLPLRWQPDSISVSNPSCPMIPLYKFMPSHSAATKPSLGVFFMTLLYVFFK
modifications: full-length
B7: Q7TNV0 (protein, UniProt Q7TNV0 1-380, looked up)
chain: MSAAAAPAAEGEDAPVPPSSEKEPEMPGPREESEEEEEDDEDDDEEDEEEEKEKSLIVEGKREKKKVERLTMQVSSLQREPFTVTQGKGQKLCEIERIHFFLSKKKPDELRNLHKLLYNRPGTVSSLKKNVGQFSGFPFEKGSTQYKKKEEMLKKFRNAMLKSICEVLDLERSGVNSELVKRILNFLMHPKPSGKPLPKSKKSSSKGSKKERNSSGTTRKSKQTKCPEILSDESSSDEDEKKNKEESSEDEEKESEEEQPPKKTSKKEKAKQKATAKSKKSVKSANVKKADSSTTKKNQKSSKKESESEDSSDDEPLIKKLKKPPTDEELKETVKKLLADANLEEVTMKQICKEVYENYPAYDLTERKDFIKTTVKELIS
modifications: full-length

system: intracellular proteome of ENR+CD and ENR organoids; test: LC-MS/MS TMT proteomics of ENR+CD versus ENR organoids; type: cell-based, C57BL/6 mice; details: ENR+CD versus ENR organoids, sample pairs in aggregate (n=4, 2 technical replicates from two biological donors)

Molecule	Average logFC
B1	−1.313
B2	−1.69
B3	1.193
B4	1.241
B5	−1.142
B6	1.366
B7	−1.42

same assay, conditions: protein abundance ratio ENR+CD versus ENR organoids, sample pair M1-1; LC-MS/MS TMT proteomics

Molecule	M1-1 Log2 Median Normalized
B1	−1.892
B2	−1.646
B3	1.31
B4	1.195
B5	−0.895
B6	1.517
B7	−1.8

same assay, conditions: protein abundance ratio ENR+CD versus ENR organoids, sample pair M1-2; LC-MS/MS TMT proteomics

Molecule	M1-2 Log2 Median Normalized
B1	−0.72
B2	−1.907
B3	0.914
B4	1.666
B5	−1.193
B6	1.383
B7	−0.726

same assay, conditions: protein abundance ratio ENR+CD versus ENR organoids, sample pair M2-1; LC-MS/MS TMT proteomics

Molecule	M2-1 Log2 Median Normalized
B1	−1.5225
B2	−2.1625
B3	1.7665
B4	0.7645
B5	−1.2285
B6	1.3355
B7	−1.2915

same assay, conditions: protein abundance ratio ENR+CD versus ENR organoids, sample pair M2-2; LC-MS/MS TMT proteomics

Molecule	M2-2 Log2 Median Normalized
B1	−1.116
B2	−1.046
B3	0.782
B4	1.337
B5	−1.142
B6	1.228
B7	−1.861

same assay, conditions: up = enriched in ENR+CD, down = enriched in ENR; FDR<0.05 and log fold change cut-off

Molecule	change
B1	down
B2	down
B3	up
B4	up
B5	down
B6	up
B7	down
